Measured values reported in US20200317768A1 (published 2020).

T1: human FcγRIIaH extracellular domain, C-terminal His-tag (human, UniProt P12318 34-217)
T1 construct: Soluble extracellular domain expressed in FreeStyle 293 cells; also called FcgRIIaH; human FcγRIIa (type H); not shown: His-tag added to the C-terminus
T1 sequence: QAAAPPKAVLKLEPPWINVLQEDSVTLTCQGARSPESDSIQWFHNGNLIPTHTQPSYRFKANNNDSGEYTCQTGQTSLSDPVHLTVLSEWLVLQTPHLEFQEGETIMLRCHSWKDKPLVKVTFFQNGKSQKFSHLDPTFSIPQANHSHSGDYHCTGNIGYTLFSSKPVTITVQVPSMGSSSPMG

T2: human FcγRIIaR extracellular domain, C-terminal His-tag (human, UniProt P12318 34-217)
T2 construct: Soluble extracellular domain expressed in FreeStyle 293 cells; also called FcgRIIaR; human FcγRIIa (type R); not shown: His-tag added to the C-terminus
T2 chain: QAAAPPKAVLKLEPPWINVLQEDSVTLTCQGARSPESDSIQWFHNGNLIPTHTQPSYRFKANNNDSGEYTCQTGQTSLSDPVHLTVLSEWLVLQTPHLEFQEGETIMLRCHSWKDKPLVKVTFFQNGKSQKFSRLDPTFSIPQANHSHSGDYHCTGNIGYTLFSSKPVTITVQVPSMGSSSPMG

T3: human FcγRIIb extracellular domain, C-terminal His-tag (human, UniProt P31994 43-217)
T3 construct: Soluble extracellular domain expressed in FreeStyle 293 cells; also called FcgRIIb; not shown: His-tag added to the C-terminus
T3 sequence: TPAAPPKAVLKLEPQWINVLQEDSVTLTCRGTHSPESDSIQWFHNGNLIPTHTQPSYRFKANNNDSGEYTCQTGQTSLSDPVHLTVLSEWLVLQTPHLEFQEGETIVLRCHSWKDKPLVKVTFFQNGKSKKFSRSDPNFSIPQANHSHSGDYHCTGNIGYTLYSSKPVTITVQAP


How the values were obtained:
[1] = target: T1, human FcγRIIaH extracellular domain, …; experiment: SPR (BIACORE); KD of SG1 divided by KD of the variant
Description: (§1) The kinetic analysis of interactions between these antibodies and FcγR was carried out using BIACORE® T200 or BIACORE® 4000 (GE Healthcare). HBS-EP+ (GE Healthcare) was used as the running buffer, and the measurement temperature was set to 25° C. A chip produced by immobilizing Protein A. Protein A/G or mouse anti-human IgG kappa light chain (BD Biosciences) onto a Series S Sensor Chip CM4 or CM5 (GE Healthcare) by the amine-coupling method was used. […] After the measurement, the antibody captured on the chip was washed off by allowing reaction with 10 mM glycine-HCl, pH1.5 and 25 mM NaOH so that the chip was regenerated and used repeatedly. The sensorgrams obtained as measurement results were analyzed by the 1:1 Langmuir binding model using the BIACORE® Evaluation Software to calculate the binding rate constant ka (L/mol/s) and dissociation rate constant kd (l/s), and the dissociation constant KD (mol/L) was calculated from these values. […] Regarding such interactions, KD values were calculated using the following 1:1 binding model described in BIACORE® T100 Software Handbook BR1006-48 Edition AE.
(§2) Furthermore, the substitutions used in Example 29 for improving antibody half-life and reducing binding to rheumatoid factor were introduced into human FcγRIIb-enhanced Fc variants and their affinity against human FcγRs were analyzed (Table 29). In this SPR analysis, all the data were obtained using mouse anti-human IgG kappa light chain for capturing the antibodies of interest.

[2] = target: T2, human FcγRIIaR extracellular domain, …; experiment: as above
Description: as §1, §2

[3] = target: T3, human FcγRIIb extracellular domain, …; experiment: as above
Description: as §1, §2

[4] = target: T4, human FcγRIIIaV extracellular domain, C-terminal His-tag (human, UniProt P08637 17-208); experiment: as above
T4 construct: Soluble extracellular domain expressed in FreeStyle 293 cells; also called FcgRIIIaV; not shown: His-tag added to the C-terminus
T4 sequence (P08637 17-208 F176V): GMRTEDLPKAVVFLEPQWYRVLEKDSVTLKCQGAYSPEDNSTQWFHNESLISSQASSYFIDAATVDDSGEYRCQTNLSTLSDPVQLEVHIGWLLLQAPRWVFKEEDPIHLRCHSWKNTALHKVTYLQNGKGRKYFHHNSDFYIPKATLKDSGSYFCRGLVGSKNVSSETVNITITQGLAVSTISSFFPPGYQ
Description: as §1, §2

[5] = target: T1, human FcγRIIaH extracellular domain, …; experiment: SPR (BIACORE), antibody captured by mouse anti-human IgG kappa light chain, FcgR extracellular domain as analyte, 25 C
Description: as §1, §2

[6] = target: T2, human FcγRIIaR extracellular domain, …; experiment: as above
Description: as §1, §2

[7] = target: T3, human FcγRIIb extracellular domain, …; experiment: as above
Description: as §1, §2

[8] = target: T4, human FcγRIIIaV extracellular domain, …; experiment: as above
Description: as §1, §2

| KD fold for humanFcgRs (SG1 = 1) [1] [fold] | KD fold for humanFcgRs (SG1 = 1) [2] [fold] | KD fold for humanFcgRs (SG1 = 1) [3] [fold] | KD fold for humanFcgRs (SG1 = 1) [4] [fold] | Kd [5] [µM] | Kd [6] [µM] | Kd [7] [µM] | Kd [8] [µM] | Binder |
| --- | --- | --- | --- | --- | --- | --- | --- | --- |
| 0.008 | 0.04 | 4.3 | 0.001 | 130 | 34 | 1.1 | 530 | MS103240H795-TT69/M103202L1045-SK1 (antibody, copies: 2 + 2) heavy: QVQLVESGGGLVQPGGSLRLSCAVSGIDLSHDDISWVRQAPGKGLEWVSIISYAGSTYYASWAKGRLTISKDTSKNQVVLTMTNMDPVDTATYYCARGVPAYSHGGDLWGQGTLVTVSSASTKGPSVFPLAPSSKSTSGGTAALGCLVKDYFPEPVTVSWNSGALTSGVHTFPAVLQSSGLYSLSSVVTVPSSSLGTQTYICNVNHKPSNTKVDKKVEPKSCDKTHTCPPCPAPELLGGDSVFLFPPKPKDVLMISRTPEVTCVVVDVSHEDPEVKFNWYVDGVEVHNAKTKPREEQYNSTYRVVSVLPVLHRDWLNGKEYKCKVSNKALPKPIEKTISKAKGQPREPQVYTLPPSREEMTKNQVSLTCLVKGFYPSDIAVEWESNGQPENNYKTTPPVLDSDGSFFLYSKLTVKKSRWQQGNVFSCSVLHEALHAHTTRKELSLSP light: DIVMTQSPATLSLSPGERATLSCTTSQSVYHENWLSWFQQKPGQPPKLLIYWASTLAYGVPSRFSGSGSGTDFTLTISSLQPEDAATYYCAGGYGGGRYAFGQGTKVEIKRTVAAPSVFIFPPSDEQLKSGTASVVCLLNNFYPREAKVQWKVDNALQSGNSQESVTEQDSKDSTYSLSSTLTLSKADYEKHKVYACEVTHQGLSSPVTKSFNRGEC |
| 0.013 | 0.06 | 11.2 | 0.001 | 74 | 19 | 0.42 | 550 | MS103240H795-TT73/M103202L1045-SK1 (antibody, copies: 2 + 2) heavy: QVQLVESGGGLVQPGGSLRLSCAVSGIDLSHDDISWVRQAPGKGLEWVSIISYAGSTYYASWAKGRLTISKDTSKNQVVLTMTNMDPVDTATYYCARGVPAYSHGGDLWGQGTLVTVSSASTKGPSVFPLAPSSKSTSGGTAALGCLVKDYFPEPVTVSWNSGALTSGVHTFPAVLQSSGLYSLSSVVTVPSSSLGTQTYICNVNHKPSNTKVDKKVEPKSCDKTHTCPPCPAPELLGGDSVFLFPPKPKDVLMISRTPEVTCVVIDVSHEDPEVKFNWYVDGVEVHNAKTKPREEQYNSTYRVVSVLPVLHRDWLNGKEYKCKVSNKALPKPIEKTISKAKGQPREPQVYTLPPSREEMTKNQVSLTCLVKGFYPSDIAVEWESNGQPENNYKTTPPVLDSDGSFFLYSKLTVKKSRWQQGNVFSCSVLHEALHAHTTRKELSLSP light: DIVMTQSPATLSLSPGERATLSCTTSQSVYHENWLSWFQQKPGQPPKLLIYWASTLAYGVPSRFSGSGSGTDFTLTISSLQPEDAATYYCAGGYGGGRYAFGQGTKVEIKRTVAAPSVFIFPPSDEQLKSGTASVVCLLNNFYPREAKVQWKVDNALQSGNSQESVTEQDSKDSTYSLSSTLTLSKADYEKHKVYACEVTHQGLSSPVTKSFNRGEC |
| 0.01 | 0.04 | 11.2 | 0.002 | 96 | 27 | 0.42 | 400 | MS103240H795-TT71/M103202L1045-SK1 (antibody) heavy: QVQLVESGGGLVQPGGSLRLSCAVSGIDLSHDDISWVRQAPGKGLEWVSIISYAGSTYYASWAKGRLTISKDTSKNQVVLTMTNMDPVDTATYYCARGVPAYSHGGDLWGQGTLVTVSSASTKGPSVFPLAPSSKSTSGGTAALGCLVKDYFPEPVTVSWNSGALTSGVHTFPAVLQSSGLYSLSSVVTVPSSSLGTQTYICNVNHKPSNTKVDKKVEPKSCDKTHTCPPCPAPELLGGDSVFLFPPKPKDVLMISRTPEVTCVVIDVSHEDPEVKFNWYVDGVEVHNAKTKPREEQYNSTYRVVSVLPVLHRDWLNGKEYKCKVSNKALPKPIEKTISKAKGQRREPQVYTLPPSREEMTKNQVSLTCLVKGFYPSDIAVEWESNGQPENNYKTTPPVLDSDGSFFLYSKLTVDKSRWQQGNVFSCSVLHEALHAHTTRKELSLSP light: DIVMTQSPATLSLSPGERATLSCTTSQSVYHENWLSWFQQKPGQPPKLLIYWASTLAYGVPSRFSGSGSGTDFTLTISSLQPEDAATYYCAGGYGGGRYAFGQGTKVEIKRTVAAPSVFIFPPSDEQLKSGTASVVCLLNNFYPREAKVQWKVDNALQSGNSQESVTEQDSKDSTYSLSSTLTLSKADYEKHKVYACEVTHQGLSSPVTKSFNRGEC |
| 0.013 | 0.03 | 12.7 | 0.002 | 72 | 40 | 0.37 | 390 | MS103240H795-TT70/M103202L1045-SK1 (antibody) heavy: QVQLVESGGGLVQPGGSLRLSCAVSGIDLSHDDISWVRQAPGKGLEWVSIISYAGSTYYASWAKGRLTISKDTSKNQVVLTMTNMDPVDTATYYCARGVPAYSHGGDLWGQGTLVTVSSASTKGPSVFPLAPSSKSTSGGTAALGCLVKDYFPEPVTVSWNSGALTSGVHTFPAVLQSSGLYSLSSVVTVPSSSLGTQTYICNVNHKPSNTKVDKKVEPKSCDKTHTCPPCPAPELLGGDSVFLFPPKPKDVLMISRTPEVTCVVIDVSHEDPEVKFNWYVDGVEVHNAKTKPREEQYNSTYRVVSVLPVLHRDWLNGKEYKCKVSNKALPKPIEKTISKAKGQRREPQVYTLPPSREEMTKNQVSLTCLVKGFYPSDIAVEWESNGQPENNYKTTPPVLDSDGSFFLYSKLTVDKSRWQQGNVFSCSVMHEALHAHYTRKELSLSP light: DIVMTQSPATLSLSPGERATLSCTTSQSVYHENWLSWFQQKPGQPPKLLIYWASTLAYGVPSRFSGSGSGTDFTLTISSLQPEDAATYYCAGGYGGGRYAFGQGTKVEIKRTVAAPSVFIFPPSDEQLKSGTASVVCLLNNFYPREAKVQWKVDNALQSGNSQESVTEQDSKDSTYSLSSTLTLSKADYEKHKVYACEVTHQGLSSPVTKSFNRGEC |
| 0.012 | 0.05 | 11.8 | 0.001 | 79 | 24 | 0.4 | 500 | MS103240H795-TT72/M103202L1045-SK1 (antibody, copies: 2 + 2) heavy: QVQLVESGGGLVQPGGSLRLSCAVSGIDLSHDDISWVRQAPGKGLEWVSIISYAGSTYYASWAKGRLTISKDTSKNQVVLTMTNMDPVDTATYYCARGVPAYSHGGDLWGQGTLVTVSSASTKGPSVFPLAPSSKSTSGGTAALGCLVKDYFPEPVTVSWNSGALTSGVHTFPAVLQSSGLYSLSSVVTVPSSSLGTQTYICNVNHKPSNTKVDKKVEPKSCDKTHTCPPCPAPELLGGDSVFLFPPKPKDVLMISRTPEVTCVVIDVSHEDPEVKFNWYVDGVEVHNAKTKPREEQYNSTYRVVSVLPVLHRDWLNGKEYKCKVSNKALPKPIEKTISKAKGQPREPQVYTLPPSREEMTKNQVSLTCLVKGFYPSDIAVEWESNGQPENNYKTTPPVLDSDGSFFLYSKLTVKKSRWQQGNVFSCSVMHEALHAHYTRKELSLSP light: DIVMTQSPATLSLSPGERATLSCTTSQSVYHENWLSWFQQKPGQPPKLLIYWASTLAYGVPSRFSGSGSGTDFTLTISSLQPEDAATYYCAGGYGGGRYAFGQGTKVEIKRTVAAPSVFIFPPSDEQLKSGTASVVCLLNNFYPREAKVQWKVDNALQSGNSQESVTEQDSKDSTYSLSSTLTLSKADYEKHKVYACEVTHQGLSSPVTKSFNRGEC |
